# B1: NLRP3ΔPYD carrying the double mutation F788E/F813E (NLRP3ΔPYD-F788E/F813E), FLAG-tagged (domain or fragment, human, UniProt Q96P20 126-1036, looked up)
# chain: RISICKMKKDYRKKYRKYVRSRFQCIEDRNARLGESVSLNKRYTRLRLIKEHRSQQEREQELLAIGKTKTCESPVSPIKMELLFDPDDEHSEPVHTVVFQGAAGIGKTILARKMMLDWASGTLYQDRFDYLFYIHCREVSLVTQRSLGDLIMSCCPDPNPPIHKIVRKPSRILFLMDGFDELQGAFDEHIGPLCTDWQKAERGDILLSSLIRKKLLPEASLLITTRPVALEKLQHLLDHPRHVEILGFSEAKRKEYFFKYFSDEAQARAAFSLIQENEVLFTMCFIPLVCWIVCTGLKQQMESGKSLAQTSKTTTAVYVFFLSSLLQPRGGSQEHGLCAHLWGLCSLAADGIWNQKILFEESDLRNHGLQKADVSAFLRMNLFQKEVDCEKFYSFIHMTFQEFFAAMYYLLEEEKEGRTNVPGSRLKLPSRDVTVLLENYGKFEKGYLIFVVRFLFGLVNQERTSYLEKKLSCKISQQIRLELLKWIEVKAKAKKLQIQPSQLELFYCLYEMQEEDFVQRAMDYFPKIEINLSTRMDHMVSSFCIENCHRVESLSLGFLHNMPKEEEEEEKEGRHLDMVQCVLPSSSHAACSHGLVNSHLTSSFCRGLFSVLSTSQSLTELDLSDNSLGDPGMRVLCETLQHPGCNIRRLWLGRCGLSHECCEDISLVLSSNQKLVELDLSDNALGDEGIRLLCVGLKHLLCNLKKLWLVSCCLTSACCQDLASVLSTSHSLTRLYVGENALGDSGVAILCEKAKNPQCNLQKLGLVNSGLTSVCCSALSSVLSTNQNLTHLYLRGNTLGDKGIKLLCEGLLHPDCKLQVLELDNCNLTSHCCWDLSTLLTSSQSLRKLSLGNNDLGDLGVMMFCEVLKQQSCLLQNLGLSEMYFNYETKSALETLQEEKPELTVVFEPSW
# notes: NLRP3, human, N-terminally truncated, amino acids 126-1036 (lacks the pyrin domain), with F788E and F813E; Made by megaprimer mutagenesis of the NLRP3ΔPYD construct; also called the mutant
# Molecular target: the molecule itself
# Assay: SEC + other: dynamic light scattering; analytical SEC: 100 µL of 1 mg/mL FLAG-tagged NLRP3ΔPYD on Superose 6 Increase 10/300, 20 mM HEPES pH 7.5, 200 mM NaCl, 1 mM MgCl2, 2 mM DTT, size by calibration standards; DLS at 10 °C in the same buffer; self-association
protein,measurement,value
B1,stoichiometry N,~3

# Reference: paper PMC9499477, “The Inflammasome Activity of NLRP3 Is Independent of NEK7 in HEK293 Cells Co-Expressing ASC” (International Journal of Molecular Sciences, 2022)
